The results in this text go back to the supplement of paper PMC7125110.

± gives the standard error. Fewer inactive variants are shown than the library holds.

B1: glmS ribozyme (parent)
chain: AUAAAAGCGCCAGAACUACAGAAAUGUAGUUGACGAGGAGGAGGUUUAUCGAAUUUUCGGCGGAUGCCUCCAAA

Common to all, as to settings: with glucosamine-6-phosphate
Variants of B1 are the subject of data set [1]. The data set can be described thus: self-cleavage kobs at 640 uM GlcN6P; higher = faster cleavage; RNA array. The method, boiled down: (§1)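 The measurements used barcoded ribozyme variants on sequenced MiSeq chips, transcribed in situ by E. coli RNA polymerase and tracked at 37 °C with a hybridised Cy3 probe. Glucosamine-6-phosphate, 40 μM to 10 mM in HEPES/KCl/Mg(OAc)2 buffer, was flowed in while tiles were imaged over ~14 h. Baseline-normalised signals, also normalised to non-cleaving reference variants, gave per-tile medians that were fit to one- or two-exponential decays for kobs. kcat and KM resulted from weighted Michaelis–Menten fits across concentrations.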

In data set [2] the parent is B1. The data set can be described thus: self-cleavage kobs at 2500 uM GlcN6P; higher = faster cleavage; RNA array. The method, boiled down: as §1
In data set [3] the parent is B1. Put plainly: self-cleavage kobs at 10000 uM GlcN6P; higher = faster cleavage; RNA array. The method, boiled down: as §1

Regarding AUAAAAGGGCCACAACUACAGAAAUGUAGUUGACGAGGAGGAGGUUUAUCGAAUUUUCAGCGGAUGCCGCCAAA [C8G G13C G59A U69G], the “self-cleavage kobs at 640 uM GlcN6P” value in data set [1] was less than 1e-05 s⁻¹. The same measure, in the same setting: then AUAAAAGGGCCGGAACUACAGAAAUGUAGUUGACGAGGAGGAGGUUUACCGAAUUUUCGGCGGAUGCCUCCAAA [C8G A12G U49C], with less than 1e-05 s⁻¹; and AUAAAAGCUCCAGAACUACAGAAAUGUAGUUGAUGAGGAGGAGGUUUAUCGAAUCUUCGCCGAAUGCCUCCAAA [G9U C34U U55C G60C G63A], with less than 1e-05 s⁻¹.

For the variant AUAAAAGCGCCAGAACUACAGAAAUGUAGUUGACCAGGAGGAUGUUUAUCGUAUUUUCGGUGGAUGCCUCCAAA [G35C G43U A52U C61U], the “self-cleavage kobs at 640 uM GlcN6P” value in data set [1] was less than 1e-05 s⁻¹. Moreover, the “self-cleavage kobs at 2500 uM GlcN6P” value in data set [2] is less than 1e-05 s⁻¹. On to AUAAAAGCGCCAGUACUACAGAAAUGUAGUUGACGAGGAGGCGGUUUAUCGAAUUUUCGGCGGCUGCCUCCAAA [A14U A42C A64C], for which the “self-cleavage kobs at 640 uM GlcN6P” value in data set [1] was less than 1e-05 s⁻¹. In data set [2], the “self-cleavage kobs at 2500 uM GlcN6P” value is less than 1e-05 s⁻¹. In data set [3], the “self-cleavage kobs at 10000 uM GlcN6P” value was less than 1e-05 s⁻¹. Turning to AUAAAAGCGCCAGAACUACAGAAAUGUAGUUAAUGAGGAGGAGGUUUAUCGAAUUUUCGACGGAUGCCUCCAAA [G32A C34U G60A], the “self-cleavage kobs at 640 uM GlcN6P” value in data set [1] was less than 1e-05 s⁻¹. Further, the “self-cleavage kobs at 2500 uM GlcN6P” value in data set [2] was less than 1e-05 s⁻¹. For the variant AUAAAAGCGCCCGAACUACAGAAAUGUAGUUGACGAGGAGGAGGUUUAGCGAAUUUUCGGCGGAUGUCUCCAAA [A12C U49G C67U], the “self-cleavage kobs at 640 uM GlcN6P” value in data set [1] amounted to 5e-05 ± 1.4e-05 s⁻¹. For the same variant, the “self-cleavage kobs at 2500 uM GlcN6P” value in data set [2] came out at 7.89e-05 ± 1.5e-05 s⁻¹.

As to AUAAAAGCGCCGGAACUACAGAAAUGUAGGUGACGAGGAGGACGUGUAUCGAAUUUUCGGCGGAUGCCUCCAAA [A12G U30G G43C U46G], the “self-cleavage kobs at 640 uM GlcN6P” value in data set [1] is less than 1e-05 s⁻¹. Regarding AUAAAAGCGCCAGAACUACAGAAAUGUAGUUGACGUGGAGGAGGAUUAUCGAAUUUUCGGCGUAUGCCUCCAAA [A36U U45A G63U], the “self-cleavage kobs at 640 uM GlcN6P” value in data set [1] was less than 1e-05 s⁻¹. Also, in data set [2], the “self-cleavage kobs at 2500 uM GlcN6P” value was less than 1e-05 s⁻¹. In the case of AUAAAAGCGCCCGAACUACCGAAAUGUAGUUGACGAGGAGGAGGUUUAUCGAAUUUUCGGCGGAUGCCUCCAAA [A12C A20C], in data set [1], the “self-cleavage kobs at 640 uM GlcN6P” value was 0.00491 ± 0.0012 s⁻¹. The “self-cleavage kobs at 2500 uM GlcN6P” value in data set [2] was determined as 0.0118 ± 0.0035 s⁻¹.

Consider AUAAAAGCGCCAGAAUUACAGAAAUGUAGUUGACGAGGAGGAGGUCUAUUGAAUUUUCGGCGGAUGCCUCCAAA [C16U U46C C50U], for which the “self-cleavage kobs at 640 uM GlcN6P” value in data set [1] is less than 1e-05 s⁻¹.

For the variant AUAAAAGCGCCAGAUCUACAGAAAUGUAGUUGACGAGUAGGAGGUUUAUCGAAUUUUCGGCGUAUGCCUCCAAA [A15U G38U G63U], the “self-cleavage kobs at 640 uM GlcN6P” value in data set [1] was less than 1e-05 s⁻¹. Same read-out and setting: the value for AUAAAAGCGCCCGAACUACAGAAAUGUAGUUGACGAGUAGGAGGUUUAUCGAAUUUUCGGCGGAUGUCUCCAAA [A12C G38U C67U] was less than 1e-05 s⁻¹. As to AUAAAAGCCUCAGAACUACAGAAAUGUAGUUGACGAGGAGGAGGUUUAUCGAAUAUUCGGCGGAUGCCUCCAAA [G9C C10U U55A], the “self-cleavage kobs at 640 uM GlcN6P” value in data set [1] was less than 1e-05 s⁻¹. Moreover, the “self-cleavage kobs at 2500 uM GlcN6P” value in data set [2] was less than 1e-05 s⁻¹. AUAAAAGCGCCAGAACUACAGAAAUGUACUUGACGAGGAGGAGGUUUGUCGAAUUUUCGACGGAUGCCUCCAAA [G29C A48G G60A]: in data set [1], the “self-cleavage kobs at 640 uM GlcN6P” value is less than 1e-05 s⁻¹.

Turning to AUAAAAGCGCCAAAACUACAGAAAUGUAGUUGACGAGGAAGAGUUUUAUCGAAUUUUCGGCGGAUGUGUCCAAA [G13A G40A G44U C67U C68G], in data set [1], the “self-cleavage kobs at 640 uM GlcN6P” value is less than 1e-05 s⁻¹. For the same variant, the “self-cleavage kobs at 2500 uM GlcN6P” value in data set [2] was less than 1e-05 s⁻¹. In addition, the “self-cleavage kobs at 10000 uM GlcN6P” value in data set [3] is less than 1e-05 s⁻¹. Consider AUAAAUGCGCCAGAACUACAGAAAUGUAGUUGGCGAGGAGGAGGUUUAUCGAAUUUUCGGCGGAUGCCGCCAAA [A6U A33G U69G], for which the “self-cleavage kobs at 640 uM GlcN6P” value in data set [1] was found to be 9.46e-05 ± 3.6e-05 s⁻¹. For the same variant, the “self-cleavage kobs at 2500 uM GlcN6P” value in data set [2] was 0.000191 ± 6.5e-05 s⁻¹. With AUAAAAGCGCCAGAACUACAGAAAUGUAGUUGACGAGGAGGAGGUUUAUCAAAUUUUCGGCCCAUGCCUCCAAA [G51A G62C G63C], in data set [1], the “self-cleavage kobs at 640 uM GlcN6P” value was less than 1e-05 s⁻¹.

For AUAAAAGCGCCAGAACUACAGAAAUGUAGUUGACCAGGAGGAGCUUUAUCGAAUUUUCGGCGGAUGCCUCCAAA [G35C G44C], the “self-cleavage kobs at 640 uM GlcN6P” value in data set [1] was less than 1e-05 s⁻¹. Besides, the “self-cleavage kobs at 10000 uM GlcN6P” value in data set [3] was less than 1e-05 s⁻¹. Consider AUAAAAGCGCCAGAGCUACAGAAAUGUAGUUGACGAGGCGGAGGUUUAUCGAUUUUUCGGCGGAUGCCUCCAAA [A15G A39C A53U], for which, in data set [1], the “self-cleavage kobs at 640 uM GlcN6P” value was 0.000793 ± 0.00012 s⁻¹. Further, the “self-cleavage kobs at 2500 uM GlcN6P” value in data set [2] is 0.00236 ± 0.00069 s⁻¹. The like results for AUAAAAGCGCCACAACUACAGAAAUGUAGUUGACGAGGACGCGGUUUAUCGAAUUUUCGGCGGAUGCCUCCAAA [G13C G40C A42C] were, in that order, less than 1e-05 s⁻¹ and less than 1e-05 s⁻¹. The like results for AUAAAAGCGCCAGAACUACAGAAAUGUAGUUGACGAGGAGGAGGUUUAUCGAAUUUUGGGCGGACGCCUCCAAA [C58G U65C] were, in that order, less than 1e-05 s⁻¹ and less than 1e-05 s⁻¹.
